Results as given in patent publication US20240402174A1 (Takeda / Millennium, published 2024).

Key:
GII.12 VLP = target: T1, GII.12 VLP (norovirus Hu/GII.12 strain E5152); assay: multiplex microsphere immunoassay
T1 construct: also called Hu/GII.12 strain E5152
T1 chain: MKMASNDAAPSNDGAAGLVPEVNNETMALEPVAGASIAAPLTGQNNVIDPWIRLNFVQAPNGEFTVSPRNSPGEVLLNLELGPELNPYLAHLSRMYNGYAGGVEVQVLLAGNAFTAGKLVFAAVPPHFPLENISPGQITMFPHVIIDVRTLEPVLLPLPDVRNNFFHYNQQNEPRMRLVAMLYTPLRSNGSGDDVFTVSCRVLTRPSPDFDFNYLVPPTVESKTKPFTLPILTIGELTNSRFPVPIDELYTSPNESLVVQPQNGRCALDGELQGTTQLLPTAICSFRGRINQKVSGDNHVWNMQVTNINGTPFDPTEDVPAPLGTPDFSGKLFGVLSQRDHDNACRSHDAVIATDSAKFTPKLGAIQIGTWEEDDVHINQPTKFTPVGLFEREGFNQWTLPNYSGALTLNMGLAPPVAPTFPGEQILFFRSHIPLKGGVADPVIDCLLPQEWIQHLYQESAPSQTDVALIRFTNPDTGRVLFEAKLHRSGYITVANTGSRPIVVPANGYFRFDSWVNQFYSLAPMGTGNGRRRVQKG

GII.17/2015 VLP = target: T2, GII.17/2015 VLP (norovirus Hu/GII.17/HKG/2015/CUHK-NS-513); assay: multiplex microsphere immunoassay
T2 construct: also called Hu/GII.17/HKG/2015/CUHK-NS-513
T2 chain: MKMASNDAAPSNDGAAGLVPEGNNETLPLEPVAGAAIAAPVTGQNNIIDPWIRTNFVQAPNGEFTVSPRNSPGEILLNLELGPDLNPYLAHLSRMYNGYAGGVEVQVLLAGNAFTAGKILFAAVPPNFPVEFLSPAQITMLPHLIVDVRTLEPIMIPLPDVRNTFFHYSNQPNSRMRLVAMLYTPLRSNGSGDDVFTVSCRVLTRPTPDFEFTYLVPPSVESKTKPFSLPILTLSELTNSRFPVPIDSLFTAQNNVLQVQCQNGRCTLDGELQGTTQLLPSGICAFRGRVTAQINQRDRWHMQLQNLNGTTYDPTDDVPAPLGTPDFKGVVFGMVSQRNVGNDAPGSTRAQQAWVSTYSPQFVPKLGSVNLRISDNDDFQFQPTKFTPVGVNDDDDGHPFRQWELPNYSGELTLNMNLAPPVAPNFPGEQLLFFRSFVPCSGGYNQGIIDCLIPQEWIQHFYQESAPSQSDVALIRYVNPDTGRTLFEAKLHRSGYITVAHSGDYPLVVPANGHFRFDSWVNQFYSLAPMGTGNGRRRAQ

GII.2 VLP = target: T3, GII.2 VLP (norovirus Hu/GII.2/OH10026/2010/JP); assay: multiplex microsphere immunoassay
T3 chain: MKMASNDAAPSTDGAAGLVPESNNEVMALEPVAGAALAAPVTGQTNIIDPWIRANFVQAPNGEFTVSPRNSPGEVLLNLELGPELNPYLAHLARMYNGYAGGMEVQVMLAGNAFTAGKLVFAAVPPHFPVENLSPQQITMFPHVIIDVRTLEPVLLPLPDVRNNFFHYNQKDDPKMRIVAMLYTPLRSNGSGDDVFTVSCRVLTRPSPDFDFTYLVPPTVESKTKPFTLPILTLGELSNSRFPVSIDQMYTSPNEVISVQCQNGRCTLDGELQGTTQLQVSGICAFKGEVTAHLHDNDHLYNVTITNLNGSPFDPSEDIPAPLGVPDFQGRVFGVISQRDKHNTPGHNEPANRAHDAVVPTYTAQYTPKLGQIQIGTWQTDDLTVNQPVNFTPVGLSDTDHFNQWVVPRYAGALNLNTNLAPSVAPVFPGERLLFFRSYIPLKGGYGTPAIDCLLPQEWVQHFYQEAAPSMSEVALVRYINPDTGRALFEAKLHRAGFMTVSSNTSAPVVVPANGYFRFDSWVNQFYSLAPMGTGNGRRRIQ

GII.4/Consensus VLP = target: T4, GII.4/Consensus VLP (norovirus GII.4 consensus sequence, UniProt P54635 1-539); assay: PGM blockade assay, serially diluted mAb
T4 chain: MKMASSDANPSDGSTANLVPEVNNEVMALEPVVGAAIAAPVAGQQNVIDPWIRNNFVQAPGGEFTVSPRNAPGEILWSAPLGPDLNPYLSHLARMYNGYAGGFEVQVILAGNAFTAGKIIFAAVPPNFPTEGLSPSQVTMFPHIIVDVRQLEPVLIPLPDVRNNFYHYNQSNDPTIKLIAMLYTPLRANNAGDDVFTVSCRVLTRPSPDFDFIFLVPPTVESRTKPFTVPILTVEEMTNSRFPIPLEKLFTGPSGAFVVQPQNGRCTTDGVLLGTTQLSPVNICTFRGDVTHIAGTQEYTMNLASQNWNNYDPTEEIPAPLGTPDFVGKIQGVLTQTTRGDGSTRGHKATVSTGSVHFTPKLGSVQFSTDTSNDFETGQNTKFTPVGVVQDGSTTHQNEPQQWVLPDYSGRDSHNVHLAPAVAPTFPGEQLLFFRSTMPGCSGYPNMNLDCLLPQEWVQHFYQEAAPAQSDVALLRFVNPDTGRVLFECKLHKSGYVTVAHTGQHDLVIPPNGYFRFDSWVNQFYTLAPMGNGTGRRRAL

GII.4/Den Haag VLP = target: T5, GII.4/Den Haag VLP (norovirus Hu/GII.4/DenHaag89/2006/NL, UniProt P54635 1-539); assay: PGM blockade assay, serially diluted mAb
T5 construct: also called Hu/GII.4/DenHaag89/2006/NL
T5 chain: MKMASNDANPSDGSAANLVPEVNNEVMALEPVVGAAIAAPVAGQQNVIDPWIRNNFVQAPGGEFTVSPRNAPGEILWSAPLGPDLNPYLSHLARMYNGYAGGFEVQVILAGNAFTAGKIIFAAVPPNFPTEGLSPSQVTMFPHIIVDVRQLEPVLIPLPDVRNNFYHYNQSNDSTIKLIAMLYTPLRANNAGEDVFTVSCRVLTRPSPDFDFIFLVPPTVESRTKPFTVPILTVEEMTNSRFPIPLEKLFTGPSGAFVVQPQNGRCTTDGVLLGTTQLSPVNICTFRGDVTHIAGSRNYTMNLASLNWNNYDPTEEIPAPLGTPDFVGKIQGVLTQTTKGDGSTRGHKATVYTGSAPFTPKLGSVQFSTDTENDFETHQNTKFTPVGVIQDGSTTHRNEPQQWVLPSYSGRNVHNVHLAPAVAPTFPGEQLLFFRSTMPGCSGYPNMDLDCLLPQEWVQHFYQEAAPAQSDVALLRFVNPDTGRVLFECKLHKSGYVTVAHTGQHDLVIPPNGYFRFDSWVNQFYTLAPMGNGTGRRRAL

B1: human mAb 1227 (antibody, V domains shown)
VH: QVQLVQSGGGMVQPGGSLSLSCAASGFTLSNYAMTWVRQAPGKGLEWVSSIGGSGGTTYYADSVKGRFTISRDSSMNTLYLQMSNLRAGDTAVYYCAKDKTRTLRLGYSGMDVWGQGTTVTVSS
VL: DIRLTQSPSSLSASVGDRVTITCRASQSISSYLNWYQQKPGKAPDLLIYGASSLQSGVPSRFSGSGSGTDFTLTISSLQPEDFGNYYCQQSFSTPRTFGQGTKVEL
notes: also called A1227
B1 was tested. Which EC50 (GII.12 VLP) did it give?
The EC50 was 0.026 µg/mL.

What about the EC50 (GII.17/2015 VLP) of the same binder?
The EC50 was 0.012 µg/mL.

What about the EC50 (GII.2 VLP) of the same binder?
Its EC50 is 0.105 µg/mL.

What about the blocking titer (GII.4/Consensus VLP) of the same binder?
Its blocking titer is 447.

And the blocking titer (GII.4/Den Haag VLP)?
The blocking titer was 162.

B2: human mAb 1431 (antibody, V domains shown)
VH: QVQLVQSGGGLVQPGGSLRLSCAASGFAFSNHGMHWVRQAPGKGLEWLSYISGSTGAIHYANSVKGRFTISRDNARNSLDLQMNSLGDEDTAVYYCARDGPRPDGTGYAGPSNDYWGQGTLVSVSS
VL: EIVLTQSPASLSLSPGERATLSCKASRSISIYLAWYQQKPGQAPRLLIYDASYRAIGIPARFSGSGSGTDFTLTISNLEPEDFAVYYCQHRSSWPALTFGGGTKVEI
notes: also called A1431
Does B2 bind (GII.12 VLP)?
Result: no binding

Does B2 bind (GII.17/2015 VLP)?
Result: no binding

Does B2 bind (GII.2 VLP)?
Result: no binding

And the blocking titer (GII.4/Consensus VLP)?
The blocking titer was 139000.

And the blocking titer (GII.4/Den Haag VLP)?
The blocking titer was 5720.
